Test [1] deals with T1, recombinant hIL1RAP Domain1+2+3 (aa21-367) (human, UniProt Q9NPH3 21-367).
T1 construct: Numbering on Uniprot Q9NPH3
T1 sequence (looked up): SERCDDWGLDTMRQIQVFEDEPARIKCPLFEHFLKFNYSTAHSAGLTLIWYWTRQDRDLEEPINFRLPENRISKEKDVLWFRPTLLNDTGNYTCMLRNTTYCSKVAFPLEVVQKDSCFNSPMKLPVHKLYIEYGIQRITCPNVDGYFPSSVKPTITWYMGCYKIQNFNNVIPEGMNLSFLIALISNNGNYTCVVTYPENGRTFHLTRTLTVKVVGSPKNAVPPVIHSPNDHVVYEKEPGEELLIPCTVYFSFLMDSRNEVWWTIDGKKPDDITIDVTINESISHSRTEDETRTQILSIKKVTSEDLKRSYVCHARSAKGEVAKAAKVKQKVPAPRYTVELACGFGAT
Description: bio-layer interferometry, human IL1RAP. As for the experimental part: (§1) Affinity measurements were done on BLItz™ Label-Free Protein Analysis System from ForteBio, using the Basic Kinetics module in the BLItz Pro 1.3.1.3 software from Molecular Devices. Protein A biosensors were hydrated in blocking buffer (PBS, 0.5% BSA, 0.05% Tween 20, pH 7.4) for minimum 10 min at room temperature before coating. Protein A biosensors were coated with antibodies by dipping the biosensors in 200 μl of antibody solution (10 μg/ml in blocking buffer) for 30 min at room temperature. The sensors were then incubated in 200 μl blocking buffer for at least 10 min before use. […] The baseline was made in blocking buffer with a duration time of 30 sec. Association was made for 120 sec in hIL1RAP followed by 120 sec dissociation in blocking buffer.
KD values for affinity towards human IL1RAP are shown in Table 17 for the de-immunized h48D2 variants. Affinity was measured using bio-layer interferometry. […] See also Table 4 for a direct comparison of 48D2, humanized 48D2, and de-immunized h48D2.

Test [2] concerns the target T2, rat IL1RAP (rat (Rattus norvegicus), UniProt Q63621 21-367, limits assumed).
T2 construct: also called rnIL1RAP
T2 sequence (looked up): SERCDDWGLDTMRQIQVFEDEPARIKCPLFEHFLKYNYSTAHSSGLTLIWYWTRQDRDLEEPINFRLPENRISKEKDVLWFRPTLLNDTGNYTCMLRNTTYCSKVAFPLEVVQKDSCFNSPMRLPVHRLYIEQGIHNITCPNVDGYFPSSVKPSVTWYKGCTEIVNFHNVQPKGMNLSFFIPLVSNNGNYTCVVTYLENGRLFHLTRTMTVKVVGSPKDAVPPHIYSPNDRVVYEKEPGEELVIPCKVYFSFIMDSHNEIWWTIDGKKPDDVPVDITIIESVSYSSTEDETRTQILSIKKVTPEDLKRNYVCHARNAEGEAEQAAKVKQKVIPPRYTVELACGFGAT
Description: indirect ELISA on coated IL1RAP, goat anti-human antibody-alkaline phosphatase, absorbance at 405 nm. As for the experimental part: (§2) Microtiter plate wells were coated with IL1RAP orthologs (Mus musculus, Rattus norvegicus, Macaca fascicularis (Mf, synonymous to cynomolgus monkey), Oryctolagus cuniculus, Canis lupus familiaris, Sus scrofa) and incubated for 1 hour at 37° C. Plates were washed followed by a blocking step. After 1 hour incubation at room temperature on agitation, the plates were washed again. The antibody was diluted in fourfold serial dilution, ranging from 4000 ng/ml to 0.24 ng/ml, in ELISA blocking solution, and then transferred to the ELISA plate. Plates were incubated at 37° C. in 30 min on agitation and then washed. Goat Anti-Human antibody conjugated to Alkaline Phosphatase was added and incubated 30 min at 37° C. on agitation. The plates were washed followed by addition of substrate (4-Nitrophenyl phosphate disodium salt hexahydrate). The plates were thereafter incubated at room temperature on agitation and absorbance at 405 nm measured consecutively for 50 min. Absorbance at 0 min was taken as background signal.
(§3) The antibody is added in increasing concentrations and absorbance at 405 nm is used to detect binding to IL1RAP. As for chimeric 48D2, the humanized and de-immunized variants h48D2 VH5.GL:VL4 and h48D2 VH5.GL:VL5.GL were cross reactive to IL1RAP from cynomolgus monkey (cyno) and pig, but have no cross reactivity to IL1RAP from mouse, rat, rabbit or dog (FIG. 18 and Table 20).
In general terms: ELISA stands for enzyme-linked immunosorbent assay.

The target of test [3] is T3, mouse IL1RAP (mouse (Mus musculus), UniProt Q61730 21-367, limits assumed).
T3 construct: Coated ortholog in the cross reactivity ELISA; also called mIL1RAP; murine IL1RAP
T3 sequence (looked up): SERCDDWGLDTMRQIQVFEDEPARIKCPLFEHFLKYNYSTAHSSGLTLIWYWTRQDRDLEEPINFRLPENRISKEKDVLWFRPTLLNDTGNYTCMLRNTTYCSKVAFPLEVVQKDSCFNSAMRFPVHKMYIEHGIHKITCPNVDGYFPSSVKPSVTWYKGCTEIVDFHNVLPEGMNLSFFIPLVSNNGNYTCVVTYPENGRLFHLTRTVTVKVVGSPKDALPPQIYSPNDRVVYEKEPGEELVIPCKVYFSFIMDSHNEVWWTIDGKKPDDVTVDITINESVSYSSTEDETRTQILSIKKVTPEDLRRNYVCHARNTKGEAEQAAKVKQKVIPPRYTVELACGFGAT
The test is described as above. As for the experimental part:
as §2, §3

Test [4] addresses T4, human IL1RAP on the cell surface (human, UniProt Q9NPH3 21-570).
T4 sequence (looked up): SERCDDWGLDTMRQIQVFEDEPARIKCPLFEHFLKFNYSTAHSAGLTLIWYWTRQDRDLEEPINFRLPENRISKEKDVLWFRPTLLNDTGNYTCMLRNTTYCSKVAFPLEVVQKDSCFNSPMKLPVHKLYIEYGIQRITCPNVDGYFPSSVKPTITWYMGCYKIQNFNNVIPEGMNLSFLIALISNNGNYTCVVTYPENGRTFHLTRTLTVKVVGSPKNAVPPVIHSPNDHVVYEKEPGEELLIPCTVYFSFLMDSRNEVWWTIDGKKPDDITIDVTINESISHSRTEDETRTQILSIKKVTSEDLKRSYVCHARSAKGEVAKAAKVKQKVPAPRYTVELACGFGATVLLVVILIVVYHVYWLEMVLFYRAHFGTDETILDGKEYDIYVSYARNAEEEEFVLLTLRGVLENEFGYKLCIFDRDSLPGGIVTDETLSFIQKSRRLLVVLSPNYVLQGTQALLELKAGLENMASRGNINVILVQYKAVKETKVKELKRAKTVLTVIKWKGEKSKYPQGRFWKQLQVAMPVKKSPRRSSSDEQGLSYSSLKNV
Description: cell-based or functional assay.

Test [5] concerns the target T1, recombinant hIL1RAP Domain1+2+3 …. Description: BLI (BLItz), antibody on Protein A biosensor, hIL1RAP (21-367) in solution. The procedure:
as §1
Affinity measurement results are shown in Table 4 for chimeric 48D2, as well as for humanized 48D2 variant VH5:VL4 (see Example 11) and for humanized and de-immunized 48D2 variant VH5.GL:VL4 (see Example 13). kₐ is the association rate constant, for characterization of the antibody binding to the target, kd is the dissociation rate constant, for characterization of the antibody dissociation from the target, and KD is the equilibrium dissociation constant between the antibody and its antigen, the ratio of kd/kₐ. […] The lower the KD value (lower concentration), the higher the affinity.

Test [6] concerns the target T4, human IL1RAP on the cell surface. As to the kind of experiment: flow cytometry on SKMEL-5 cells, Alexa488 anti-human IgG secondary. The procedure:
FIG. 12: Dose-dependent binding of chimeric 48D2 to cell membrane IL1RAP Chimeric 48D2 or hIgG1 (hIg=human immunoglobulin) isotype control antibody was added to SKMEL-5 cells in increasing concentrations and extracellular binding was analyzed by flow cytometry. Chimeric 48D2 specifically bound IL1RAP on the cell membrane in a dose-dependent manner and with higher mean fluorescent intensity (MFI) compared to the hIgG1 isotype control antibody.
The malignant melanoma (or malign melanoma) cell line SKMEL-5, which expresses IL1RAP on the cell surface, was used for the analysis. SKMEL-5 cells were cultured according to standard procedures. 5×10⁴ SKMEL-5 cells were blocked with human Fc block and then stained with 8-step serial dilutions (100 μg/ml-0.03 μg/ml) of chimeric 48D2 or isotype control antibody. Following secondary staining using Alexa488-conjugated anti-human IgG antibody, 10000 cells/sample were analyzed on a CytoFlex (Beckman Coulter). HTB183 cells expressing low levels of surface IL1RAP were used as negative controls.
(Flow cytometry measures light scatter and fluorescence of single cells or particles in a stream.)

For test [7], the target named is T2, rat IL1RAP. As to the kind of experiment: indirect ELISA on coated IL1RAP, goat anti-human antibody-alkaline phosphatase, absorbance at 405 nm. The procedure: as §2
(§4) The antibody is added in increasing concentrations and absorbance at 405 nm is used to detect binding of the antibody to IL1RAP orthologues. 48D2 is cross reactive to IL1RAP from human, cynomolgus monkey (cyno) and pig, but has no cross reactivity to IL1RAP from mouse, rat, rabbit or dog (FIG. 14 and Table 7).
This is another data set of the same source.

Test [8] concerns the target T3, mouse IL1RAP. The description is as above. The procedure:
as §2, §4
The source holds these as a separate data set.

Test [9] addresses T4, human IL1RAP on the cell surface. As to the kind of experiment: cell-based or functional assay. This is another data set of the same source.

Consider two molecules from US20220242950A1 (CANTARGIA, published 2022).

Like-named read-outs stand apart in the source and are kept apart here.

The term Kd denotes the free concentration of one partner at which half of the binding sites on the other are occupied at equilibrium, for simple one-to-one binding. Broadly, the koff is the first-order rate constant of dissociation. The term kon denotes a measure of how fast the partners come together. Usually EC50 (read off the curve) stands for the concentration that produces a half-maximal response. The low end stands for a more potent agent, the high end for a less potent agent.

B1: h48D2 VH5.GL:VL5.GL (antibody, human IgG1, kappa, L234A L235A)
heavy: not shown
light: DIQMTQSPSTLSASVGDRVTITCQASESISTALAWYQQKPGQPPKLLIYKASTLPSGVPSRFSGSGSGTEFTLTISDLESDDAATYYCQQGFSSGNVHNAFGGGTEVVVKRTVAAPSVFIFPPSDEQLKSGTASVVCLLNNFYPREAKVQWKVDNALQSGNSQESVTEQDSKDSTYSLSSTLTLSKADYEKHKVYACEVTHQGLSSPVTKSFNRGEC
notes: Humanized and de-immunized; also called VL5.GL:VH5.GL
For B1, in [1], the equilibrium dissociation constant (Kd) was 1.47 nM. The binding result in the test with rat IL1RAP [2] was “no binding (tested: 4000 ng/mL)”. Also, the binding result with mouse IL1RAP [3] is reported as “no binding (tested: 4000 ng/mL)”. In test [4], the “IC50 of IL-1α signaling (HEK-Blue assay)” value was determined as 0.24 nM, the “IC50 of IL-1β signaling (HEK-Blue assay)” value is 0.13 nM, the “IC50 of IL-33 signaling (HEK-Blue assay)” value was determined as 3.56 nM and the “IC50 of IL-36α signaling (HEK-Blue assay)” value was determined as 0.174 nM. Moreover, in test [4], the “IC50 of IL-36β signaling (HEK-Blue assay)” value was determined as 0.185 nM and the “IC50 of IL-36γ signaling (HEK-Blue assay)” value worked out at 0.244 nM.

B2: chimeric 48D2 (antibody, V domains shown, not shown: a dimerising Fc or GST)
VH: QEQLEESGGGLVKPGGSLTLTCTVSGPSLSHFDITWVRQAPGSGLEWIGTISPGVSTYYASWAKSRSTITSNTNLNTVTLKMTSLTAADTATYFCARGGVGSSWKAFDLWGPGTLVTISS
VL: APVLTQTPASVEVAVGGTVTIKCQASESISTALAWYQQKPGQPPKLLIYKASTLPSGVSSRFKGSGSGTEFALTISDLECDDAATYYCQQGFSSGNVHNAFGGGTEVVVKR
notes: Chimeric rabbit/human IgG1, expressed in CHO cells; also called ch48D2; 48D2 chimeric (ch) rabbit/human anti-human IL1RAP
For B2, in test [5], the Kd was found to be 2.67 nM, the koff worked out at 0.000174 s⁻¹ and the kon was found to be 65200 M⁻¹ s⁻¹. In addition, in test [6], the “EC50 (read off the curve)” value is ~6 nM. In addition, in the test with rat IL1RAP [7], the binding result was “no binding (tested: 4000 ng/mL)”. For the same molecule, in the test with mouse IL1RAP [8], the binding result is reported as “no binding (tested: 4000 ng/mL)”. Moreover, in test [9], the “IC50 of IL-1α signaling (HEK-Blue assay)” value stood at 1.92 nM, the “IC50 of IL-1β signaling (HEK-Blue assay)” value stood at 0.7 nM, the “IC50 of IL-33 signaling (HEK-Blue assay)” value is 2.92 nM and the “IC50 of IL-36α signaling (HEK-Blue assay)” value worked out at 0.0083 nM. Moreover, in test [9], the “IC50 of IL-36β signaling (HEK-Blue assay)” value was 0.0081 nM and the “IC50 of IL-36γ signaling (HEK-Blue assay)” value amounted to 0.0111 nM.
